Experimental data as given in patent US20240409599A1 (Genentech, published 2024).
Numbering of substitutions follows the chain as printed. Names may count otherwise.

B1: Human IL-18 A162C/I185C (ligand)
chain: YFGKLESKLSVIRNLNDQVLFIDQGNRPLFEDMTDSDSRDNAPRTIFIISMYKDSQPRGMAVTISVKSEKISTLSSENKIISFKEMNPPDNIKDTKSDIIFFQRSVPGHDNKMQFESSSYEGYFLCSEKERDLFKLILKKEDELGDRSCMFTVQNED
notes: Made in mammalian cells
B2: Human IL-18 S101C/T109C (ligand)
chain: B1 chain with S65C, T73C, C126A, C149I
notes: Made in mammalian cells
B3: Human IL-18 S46C/I85C (ligand)
chain: B1 chain with S10C, I49C, C126A, C149I
notes: Made in mammalian cells
B4: Human IL-18 F57C/T81C (ligand)
chain: B1 chain with F21C, T45C, C126A, C149I
notes: Made in mammalian cells
B5: Human IL-18 N50C/L174C (ligand)
chain: B1 chain with N14C, S76C, C126A, S127C, L138C, C149I
notes: Made in mammalian cells
B6: Human IL-18 I107C/N123C (ligand)
chain: B1 chain with I71C, N87C, C126A, C149I
notes: Made in mammalian cells
B7: Human IL-18 S43C/S86C (ligand)
chain: B1 chain with S7C, S50C, C126A, C149I
notes: Made in mammalian cells
B8: Human IL-18 T99C/P124C (ligand)
chain: B1 chain with T63C, P88C, C126A, C149I
notes: Made in mammalian cells
B9: Human IL-18 hCS (ligand)
chain: B1 chain with C126A, C149I
B10: Human IL-18 L45C/E192C (ligand)
chain: B1 chain with L9C, C126A, C149I, E156C
notes: Made in mammalian cells
B11: Human IL-18 S46C/V189C (ligand)
chain: B1 chain with S10C, C126A, C149I, V153C
notes: Made in mammalian cells
B12: Human IL-18 L174C (ligand)
chain: B1 chain with S76C, C126A, L138C, C149I
notes: Made in mammalian cells
B13: Human IL-18 N50C (ligand)
chain: B1 chain with N14C, C126A, S127C, C149I
notes: Made in mammalian cells
B14: Human IL-18 Y37C/S91C (ligand)
chain: B1 chain with Y1C, S55C, C126A, C149I
notes: Made in mammalian cells
B15: Mouse wild-type mature IL-18 (ligand)
chain: NFGRLHCTTAVIRNINDQVLFVDKRQPVFEDMTDIDQSASEPQTRLIIYMYKDSEVRGLAVTLSVKDSKMSTLSCKNKIISFEEMDPPENIDDIQSDLIFFQKRVPGHNKMEFESSLYEGHFLACQKEDDAFKLILKKKDENGDKSVMFTLTNLHQS
notes: also called Mouse WT; mouse mature IL-18
B16: Mouse IL-18 T44C/L189C (ligand)
chain: B15 chain with C7S, T9C, C75S, C125S, L154C
notes: Made in mammalian cells
B17: Mouse IL-18 A159C/V182C (ligand)
chain: B15 chain with C7S, C75S, A124C, C125S, V147C

Biological target: T1, Human IL-18BP (isoform A) (human, UniProt O95998 31-194, biotinylated (site not stated))
T1 construct: also called decoy receptor
T1 sequence: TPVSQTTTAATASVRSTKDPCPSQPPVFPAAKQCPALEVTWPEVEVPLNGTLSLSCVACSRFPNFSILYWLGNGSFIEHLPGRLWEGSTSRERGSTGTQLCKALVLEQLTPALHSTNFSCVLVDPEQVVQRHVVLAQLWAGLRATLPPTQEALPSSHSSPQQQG
Assay: SPR, Biacore 8K, 37 C, biotinylated target on SA chip, single-cycle kinetics
Procedure: (§1) SPR experiments were performed using a Biacore 8K (Cytiva) at a temperature of 37° C. Biotinylated human or mouse IL-18Rα and IL-18BP were immobilized onto Biacore streptavidin sensor chip (Series S Sensor Chip SA, Cytiva) to yield an Rmax ≤50 RU. Measurements were made with five, three-fold dilutions into HBS-P+ buffer (10 mM HEPES pH 7.4, 150 mM NaCl, 0.005% surfactant P20). Interactions were evaluated using the single-cycle kinetics method and analyzed with the Biacore 8K evaluation software and fit to a 1:1 binding model.
(§2) A subset of variants were selected for analyses of binding kinetics to the L-18 receptor, IL-IM, and the decoy receptor, L-18BP, by surface plasmon resonance (SPR) (Table 8). With two exceptions, all kinetics constants are within an order of magnitude of wild-type IL-18.

Binder | Kd | koff | kon
B1 | 0.0065 nM | 1.89e-05 s⁻¹ | 2.91e+06 M⁻¹ s⁻¹
B2 | 0.011 nM | 2.4e-05 s⁻¹ | 2.3e+06 M⁻¹ s⁻¹
B3 | 0.035 nM | 0.00012 s⁻¹ | 3.3e+06 M⁻¹ s⁻¹
B4 | 0.007 nM | 2.2e-05 s⁻¹ | 3.4e+06 M⁻¹ s⁻¹
B5 | 0.014 nM | 4.8e-05 s⁻¹ | 3.6e+06 M⁻¹ s⁻¹
B6 | 0.007 nM | 2.1e-05 s⁻¹ | 2.9e+06 M⁻¹ s⁻¹
B7 | 0.009 nM | 3.2e-05 s⁻¹ | 3.4e+06 M⁻¹ s⁻¹
B8 | 0.008 nM | 2.5e-05 s⁻¹ | 3e+06 M⁻¹ s⁻¹
B9 | 0.035 nM | 4.9e-05 s⁻¹ | 1.4e+06 M⁻¹ s⁻¹
B10 | 0.015 nM | 3.1e-05 s⁻¹ | 2.1e+06 M⁻¹ s⁻¹
B11 | 0.018 nM | 4.3e-05 s⁻¹ | 2.3e+06 M⁻¹ s⁻¹
B12 | 0.007 nM | 2.1e-05 s⁻¹ | 2.93e+06 M⁻¹ s⁻¹
B13 | 0.0062 nM | 2.6e-05 s⁻¹ | 4.22e+06 M⁻¹ s⁻¹
B14 | 0.07 nM | 0.00018 s⁻¹ | 2.6e+06 M⁻¹ s⁻¹

Biological target: T2, Mouse IL-18BP (isoform D) (mouse, UniProt Q9Z0M9 29-193, biotinylated (site not stated))
T2 sequence: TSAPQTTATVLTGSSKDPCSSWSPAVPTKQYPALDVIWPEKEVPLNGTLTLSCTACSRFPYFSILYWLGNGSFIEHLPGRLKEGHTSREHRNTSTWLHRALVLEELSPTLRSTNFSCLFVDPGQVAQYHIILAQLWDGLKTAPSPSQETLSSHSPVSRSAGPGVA
Assay: as above
Procedure: as §1, §2

Binder | kon | Kd | koff
B15 | 650000 M⁻¹ s⁻¹ | – | –
B16 | 2e+06 M⁻¹ s⁻¹ | 0.005 nM | 1.1e-05 s⁻¹
B17 | 2.23e+06 M⁻¹ s⁻¹ | 0.014 nM | 3.2e-05 s⁻¹

Biological target: T3, Mouse IL-18Rα extracellular domain (mouse, UniProt Q61098 20-326, biotinylated (site not stated))
T3 sequence: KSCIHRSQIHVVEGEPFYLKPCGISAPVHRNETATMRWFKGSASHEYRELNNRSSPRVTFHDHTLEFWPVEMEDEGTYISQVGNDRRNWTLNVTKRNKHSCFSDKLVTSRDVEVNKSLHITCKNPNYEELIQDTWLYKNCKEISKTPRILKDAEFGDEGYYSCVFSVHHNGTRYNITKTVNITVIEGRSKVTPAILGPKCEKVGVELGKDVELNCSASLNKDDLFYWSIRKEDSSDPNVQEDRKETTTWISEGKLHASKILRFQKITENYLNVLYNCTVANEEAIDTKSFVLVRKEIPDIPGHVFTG
Assay: as above
Procedure: as §1, §2

Binder | Kd | koff | kon
B15 | 1.27 nM | 0.0097 s⁻¹ | 7.6e+06 M⁻¹ s⁻¹
B16 | 5.2 nM | 0.04 s⁻¹ | 7.6e+06 M⁻¹ s⁻¹
B17 | 1.11 nM | 0.0077 s⁻¹ | 7e+06 M⁻¹ s⁻¹

Biological target: T4, Human IL-18Rα extracellular domain (human, UniProt Q13478 22-329, biotinylated (site not stated))
T4 construct: also called IL-18 receptor
T4 sequence: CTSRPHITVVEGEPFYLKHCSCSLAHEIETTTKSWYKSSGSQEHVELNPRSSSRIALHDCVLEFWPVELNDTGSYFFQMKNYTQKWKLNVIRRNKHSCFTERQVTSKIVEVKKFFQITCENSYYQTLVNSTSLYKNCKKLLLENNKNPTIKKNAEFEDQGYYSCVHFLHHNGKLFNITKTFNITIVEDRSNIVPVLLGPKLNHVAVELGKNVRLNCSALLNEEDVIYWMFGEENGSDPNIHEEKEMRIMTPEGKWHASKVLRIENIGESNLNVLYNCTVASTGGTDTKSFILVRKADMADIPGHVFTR
Assay: as above
Procedure: as §1, §2

Binder | Kd | koff | kon
B1 | 68.1 nM | 0.212 s⁻¹ | 3.11e+06 M⁻¹ s⁻¹
B2 | 147 nM | 0.042 s⁻¹ | 280000 M⁻¹ s⁻¹
B6 | 14.7 nM | 0.031 s⁻¹ | 2.1e+06 M⁻¹ s⁻¹
B7 | 54.5 nM | 0.0241 s⁻¹ | 440000 M⁻¹ s⁻¹
B8 | 64.4 nM | 0.032 s⁻¹ | 500000 M⁻¹ s⁻¹
B9 | 1.7 nM | 5.6e-05 s⁻¹ | 32000 M⁻¹ s⁻¹
B10 | 58.7 nM | 0.028 s⁻¹ | 470000 M⁻¹ s⁻¹
B11 | 147 nM | 0.054 s⁻¹ | 360000 M⁻¹ s⁻¹
B12 | 32.8 nM | 0.011 s⁻¹ | 350000 M⁻¹ s⁻¹

Biological target: T4, Human IL-18Rα extracellular domain
Assay: SPR, Biacore 8K, 37 C, biotinylated target on SA chip
Procedure: as §1, §2

Binder | binding result
B5 | no binding (tested: up to 81 nM)
B13 | no binding (tested: up to 81 nM)
